{"source": "paper PMC8915792", "about": "(Proceedings of the National Academy of Sciences of the …, 2022)", "target": "the molecule itself", "assay": "fluorescence polarisation", "data": [{"protein": "HaloTag-ABS3 (human talin-1 C-terminal actin-binding domain, residues 2,293 to 2,541, as a HaloTag fusion protein) (domain or fragment) TEWVDPEDPTVIAENELLGAAAAIEAAAKKLEQLKPRAKPKEADESLNFEEQILEAAKSIAAATSALVKAASAAQRELVAQGKVGAIPANALDDGQWSQGLISAARMVAAATNNLCEAANAAVQGHASQEKLISSAKQVAASTAQLLVACKVKADQDSEAMKRLQAAGNAVKRASDNLVKAAQKAAAFEEQENETVVVKEKMVGGIAQIIAAQEEMLRKERELEEARKKLAQIRQQQYKFLPSELRDEH", "values": [{"measurement": "Kd", "value": "1.9 ± 0.2", "unit": "µM"}]}]}
